Assay results reported in the supplement of paper PMC10065799, “High-throughput profiling of sequence recognition by tyrosine kinases and SH2 domains using bacterial peptide display” (eLife, 2023).

Columns and labels:
c-Src SH2 = experiment: SH2 binding enrichment of the phosphorylated peptide, bacterial display (enrichment ratio); higher = better substrate or ligand; peptides without Tyr show the background
Grb2 SH2 = Grb2 SH2 (UniProt P62993); experiment: as above
SHP2-C SH2 = experiment: as above
EPHB1 = EPHB1 (UniProt P54762); experiment: phosphorylation enrichment, bacterial display (enrichment ratio); higher = better substrate or ligand; peptides without Tyr show the background
EPHB1, sequence (P54762 whole entry, looked up): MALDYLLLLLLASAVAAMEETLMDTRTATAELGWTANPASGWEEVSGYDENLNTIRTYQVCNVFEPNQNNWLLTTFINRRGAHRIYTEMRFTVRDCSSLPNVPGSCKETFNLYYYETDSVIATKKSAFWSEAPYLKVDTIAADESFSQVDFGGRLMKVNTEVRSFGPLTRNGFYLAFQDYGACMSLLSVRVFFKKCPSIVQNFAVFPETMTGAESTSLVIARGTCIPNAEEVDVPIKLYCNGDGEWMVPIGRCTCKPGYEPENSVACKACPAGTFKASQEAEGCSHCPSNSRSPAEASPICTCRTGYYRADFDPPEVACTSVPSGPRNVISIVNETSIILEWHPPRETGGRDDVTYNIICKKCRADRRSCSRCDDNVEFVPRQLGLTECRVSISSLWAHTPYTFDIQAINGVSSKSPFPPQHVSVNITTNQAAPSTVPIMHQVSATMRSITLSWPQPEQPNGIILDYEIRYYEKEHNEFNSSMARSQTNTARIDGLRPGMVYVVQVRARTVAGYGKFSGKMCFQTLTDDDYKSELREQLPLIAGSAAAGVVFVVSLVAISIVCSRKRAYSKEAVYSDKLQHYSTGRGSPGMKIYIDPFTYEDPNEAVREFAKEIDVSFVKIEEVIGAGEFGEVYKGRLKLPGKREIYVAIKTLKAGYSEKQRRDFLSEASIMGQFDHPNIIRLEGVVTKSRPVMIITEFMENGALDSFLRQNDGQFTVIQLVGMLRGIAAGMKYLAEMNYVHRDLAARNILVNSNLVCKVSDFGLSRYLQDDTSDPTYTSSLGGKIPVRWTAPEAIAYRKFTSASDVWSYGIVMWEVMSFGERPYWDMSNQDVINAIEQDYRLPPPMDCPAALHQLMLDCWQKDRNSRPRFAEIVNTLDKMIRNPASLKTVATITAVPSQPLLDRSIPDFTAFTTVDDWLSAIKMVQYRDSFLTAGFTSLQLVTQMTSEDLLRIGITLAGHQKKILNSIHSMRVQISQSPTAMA

Jak2 = Jak2 (UniProt O60674); experiment: as above
EPHB2 = EPHB2 (UniProt P29323); experiment: as above
FGFR3 = FGFR3 (UniProt P22607); experiment: as above
FGFR3, sequence (P22607 whole entry, looked up): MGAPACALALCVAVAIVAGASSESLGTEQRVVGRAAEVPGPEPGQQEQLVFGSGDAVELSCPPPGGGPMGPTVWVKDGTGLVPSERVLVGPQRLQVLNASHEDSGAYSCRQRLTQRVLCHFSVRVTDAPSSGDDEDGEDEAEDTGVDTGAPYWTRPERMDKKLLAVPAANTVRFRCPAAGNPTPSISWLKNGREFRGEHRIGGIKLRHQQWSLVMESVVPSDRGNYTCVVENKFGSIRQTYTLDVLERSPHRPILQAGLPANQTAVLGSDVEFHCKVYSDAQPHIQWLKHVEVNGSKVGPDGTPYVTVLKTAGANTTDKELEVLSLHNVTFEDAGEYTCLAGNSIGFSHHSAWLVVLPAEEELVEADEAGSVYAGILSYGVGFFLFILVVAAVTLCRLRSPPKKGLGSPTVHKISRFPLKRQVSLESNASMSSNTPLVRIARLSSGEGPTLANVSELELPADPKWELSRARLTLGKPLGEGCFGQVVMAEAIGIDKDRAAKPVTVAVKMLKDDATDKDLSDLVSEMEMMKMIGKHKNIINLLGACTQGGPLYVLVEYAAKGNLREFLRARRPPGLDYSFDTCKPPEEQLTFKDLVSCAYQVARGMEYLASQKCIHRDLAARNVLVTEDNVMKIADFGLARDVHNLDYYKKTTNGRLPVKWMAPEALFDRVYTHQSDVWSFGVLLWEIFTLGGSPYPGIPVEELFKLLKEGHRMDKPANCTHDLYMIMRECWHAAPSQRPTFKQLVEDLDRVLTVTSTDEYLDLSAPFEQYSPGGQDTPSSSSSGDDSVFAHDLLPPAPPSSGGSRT

c-Src = experiment: as above
Fer (mouse) = experiment: as above
Fyn = Fyn (UniProt P06241); experiment: as above
Fyn, sequence (P06241 whole entry, looked up): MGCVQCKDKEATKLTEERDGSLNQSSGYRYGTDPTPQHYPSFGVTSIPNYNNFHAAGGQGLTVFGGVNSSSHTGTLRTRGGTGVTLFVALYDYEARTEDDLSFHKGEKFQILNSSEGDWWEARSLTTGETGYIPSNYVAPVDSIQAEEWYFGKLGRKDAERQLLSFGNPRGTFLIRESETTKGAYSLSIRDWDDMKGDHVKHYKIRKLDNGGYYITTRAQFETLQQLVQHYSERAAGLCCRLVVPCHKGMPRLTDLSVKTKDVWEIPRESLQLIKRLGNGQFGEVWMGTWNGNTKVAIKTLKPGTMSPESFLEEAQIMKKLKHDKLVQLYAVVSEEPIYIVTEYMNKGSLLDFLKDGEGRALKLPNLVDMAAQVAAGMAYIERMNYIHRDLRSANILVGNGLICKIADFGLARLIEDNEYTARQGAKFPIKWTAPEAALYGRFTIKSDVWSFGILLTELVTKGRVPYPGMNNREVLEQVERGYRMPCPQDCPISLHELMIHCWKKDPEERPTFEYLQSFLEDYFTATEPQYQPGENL

Hck = Hck (UniProt P08631); experiment: as above
Hck, sequence (P08631 whole entry, looked up): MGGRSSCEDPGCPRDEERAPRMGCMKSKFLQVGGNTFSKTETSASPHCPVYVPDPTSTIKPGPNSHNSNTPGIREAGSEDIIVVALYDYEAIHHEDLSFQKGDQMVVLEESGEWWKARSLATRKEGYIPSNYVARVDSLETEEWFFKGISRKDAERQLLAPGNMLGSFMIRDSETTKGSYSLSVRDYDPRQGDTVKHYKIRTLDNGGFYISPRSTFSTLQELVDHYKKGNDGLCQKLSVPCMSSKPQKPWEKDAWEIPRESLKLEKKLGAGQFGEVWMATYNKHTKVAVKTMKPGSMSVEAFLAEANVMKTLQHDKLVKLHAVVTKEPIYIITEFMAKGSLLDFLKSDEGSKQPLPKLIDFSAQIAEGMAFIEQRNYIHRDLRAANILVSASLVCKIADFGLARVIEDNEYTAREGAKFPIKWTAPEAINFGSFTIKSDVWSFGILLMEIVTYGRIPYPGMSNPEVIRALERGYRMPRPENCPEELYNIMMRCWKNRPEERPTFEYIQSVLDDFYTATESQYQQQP

AncSZ = experiment: as above
FGFR1 = FGFR1 (UniProt P11362); experiment: as above
FGFR1, sequence (P11362 whole entry, looked up): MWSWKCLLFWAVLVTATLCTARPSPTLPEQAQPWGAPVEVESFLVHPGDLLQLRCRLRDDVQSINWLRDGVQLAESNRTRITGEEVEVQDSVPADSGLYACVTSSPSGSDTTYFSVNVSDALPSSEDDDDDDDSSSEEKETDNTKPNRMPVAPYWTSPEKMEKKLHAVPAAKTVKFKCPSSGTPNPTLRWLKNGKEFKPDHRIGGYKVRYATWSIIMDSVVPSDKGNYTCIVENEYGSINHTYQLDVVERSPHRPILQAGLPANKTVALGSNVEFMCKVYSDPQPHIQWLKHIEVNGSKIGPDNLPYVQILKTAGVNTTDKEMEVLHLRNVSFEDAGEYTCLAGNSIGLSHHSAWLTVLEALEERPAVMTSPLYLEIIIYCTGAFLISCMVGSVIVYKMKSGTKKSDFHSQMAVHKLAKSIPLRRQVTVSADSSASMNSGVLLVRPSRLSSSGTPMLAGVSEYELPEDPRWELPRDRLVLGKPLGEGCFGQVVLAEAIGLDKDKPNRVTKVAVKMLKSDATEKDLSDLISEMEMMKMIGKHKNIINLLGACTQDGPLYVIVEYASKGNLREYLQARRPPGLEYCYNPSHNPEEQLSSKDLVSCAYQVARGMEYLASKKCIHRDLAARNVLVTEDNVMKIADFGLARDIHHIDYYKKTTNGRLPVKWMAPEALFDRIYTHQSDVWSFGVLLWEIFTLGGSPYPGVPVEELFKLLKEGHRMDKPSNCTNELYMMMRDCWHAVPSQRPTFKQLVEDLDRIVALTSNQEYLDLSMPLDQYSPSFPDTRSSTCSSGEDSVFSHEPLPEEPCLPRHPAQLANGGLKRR

c-Abl (mouse) = experiment: as above
MERTK = MERTK (UniProt Q12866); experiment: as above
MERTK, sequence (Q12866 whole entry, looked up): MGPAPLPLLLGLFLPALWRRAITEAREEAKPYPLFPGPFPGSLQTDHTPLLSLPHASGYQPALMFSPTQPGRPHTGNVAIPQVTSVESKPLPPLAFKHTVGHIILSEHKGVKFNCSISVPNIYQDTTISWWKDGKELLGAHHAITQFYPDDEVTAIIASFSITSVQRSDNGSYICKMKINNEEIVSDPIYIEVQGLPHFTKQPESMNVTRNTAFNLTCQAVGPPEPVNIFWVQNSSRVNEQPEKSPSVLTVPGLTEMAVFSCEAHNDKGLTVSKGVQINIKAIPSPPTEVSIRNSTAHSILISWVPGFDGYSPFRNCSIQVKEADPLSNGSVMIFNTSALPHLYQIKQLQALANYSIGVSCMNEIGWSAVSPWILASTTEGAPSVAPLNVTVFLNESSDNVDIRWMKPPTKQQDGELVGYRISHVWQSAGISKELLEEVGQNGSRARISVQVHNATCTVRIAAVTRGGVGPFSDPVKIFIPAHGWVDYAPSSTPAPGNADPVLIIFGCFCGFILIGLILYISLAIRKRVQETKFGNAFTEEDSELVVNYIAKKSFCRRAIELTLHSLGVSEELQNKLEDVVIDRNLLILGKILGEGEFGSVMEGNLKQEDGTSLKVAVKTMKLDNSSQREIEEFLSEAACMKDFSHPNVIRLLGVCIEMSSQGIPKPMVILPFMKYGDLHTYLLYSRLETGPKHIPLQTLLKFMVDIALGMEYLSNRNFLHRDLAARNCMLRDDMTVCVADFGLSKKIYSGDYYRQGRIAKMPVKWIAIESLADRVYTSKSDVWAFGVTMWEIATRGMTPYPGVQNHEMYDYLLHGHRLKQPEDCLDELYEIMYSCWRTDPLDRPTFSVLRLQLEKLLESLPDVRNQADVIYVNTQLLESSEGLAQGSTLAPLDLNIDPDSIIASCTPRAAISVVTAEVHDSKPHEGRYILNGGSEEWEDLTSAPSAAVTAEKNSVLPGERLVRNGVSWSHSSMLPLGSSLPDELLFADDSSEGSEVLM

Fes = Fes (UniProt P07332); experiment: as above
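For SH2 binding enrichment of the phosphorylated peptide, bacterial display in this document: peptide library displayed on the E. coli surface as eCPX fusions, selected cells deep-sequenced, score is each peptide's frequency after selection divided by its frequency in the input.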
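For phosphorylation enrichment, bacterial display in this document: 11-residue human phosphosite peptides and single-mutation variants displayed on the E. coli surface, counted by deep sequencing, each peptide's frequency after selection divided by its frequency in the unselected input library; frequency after pTyr selection over input frequency; kinase dosed for 20-30% of maximal phosphorylation in three min.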

Grb2 SH2, sequence (P62993 whole entry, looked up): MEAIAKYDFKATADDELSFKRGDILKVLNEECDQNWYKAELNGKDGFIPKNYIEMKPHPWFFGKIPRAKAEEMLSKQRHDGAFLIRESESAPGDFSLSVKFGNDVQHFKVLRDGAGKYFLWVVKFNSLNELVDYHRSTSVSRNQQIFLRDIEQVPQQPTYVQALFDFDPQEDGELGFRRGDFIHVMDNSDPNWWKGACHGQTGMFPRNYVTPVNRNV

Sequence	SH2 binding enrichment (c-Src SH2)	SH2 binding enrichment (Grb2 SH2)	SH2 binding enrichment (SHP2-C SH2)	phosphorylation enrichment (EPHB1)	phosphorylation enrichment (Jak2)	phosphorylation enrichment (EPHB2)	phosphorylation enrichment (FGFR3)	phosphorylation enrichment (c-Src)	phosphorylation enrichment (Fer (mouse))	phosphorylation enrichment (Fyn)	phosphorylation enrichment (Hck)	phosphorylation enrichment (AncSZ)	phosphorylation enrichment (FGFR1)	phosphorylation enrichment (c-Abl (mouse))	phosphorylation enrichment (MERTK)	phosphorylation enrichment (Fes)
FHIDHYLGKEM [G6PD_Y202_R198H_YF]	0.778	1.33	0.787	0.438	0.467	0.553	0.481	0.334	0.342	0.39	0.503	0.556	0.53	0.415	0.331	0.688
RKEAQYMLENE [SLC16A6_Y224]	0.703	0.8	0.791	0.605	1.22	0.523	0.827	0.899	0.445	0.642	0.803	1.52	0.503	0.997	0.619	1.32
SGIYQYSIAKF [FOXL2_Y83_I84S]	2.06	0.994	11.8	4.84	1.04	2.75	1.46	4.12	13.4	4.54	5.59	1.83	1.71	7.69	9.44	1.18
IGVDSYSVCKR [RPS6KA3_Y433_G431D]	0.971	0.908	0.627	0.402	0.462	0.418	0.405	0.322	0.366	0.347	0.387	0.537	0.381	0.417	0.338	0.577
ALSDGYWVVSN [TPP1_Y459]	9.23	0.823	0.879	0.475	1.79	0.518	1.1	0.516	0.398	0.44	0.635	1.19	1.32	0.71	0.372	1.01
TQPSPYAVFRF [RPGRIP1_Y823_YF]	0.696	1	1.1	2.6	0.824	0.922	0.8	7.72	9.31	10.7	8.6	0.952	0.893	24.8	9.69	0.805
ETKEDYEKILV [ANXA1_Y335_G333E]	0.594	0.972	0.905	0.616	1.01	0.598	0.743	0.484	0.598	0.501	0.572	1.09	0.509	0.779	0.53	1.23
GEIQEYGAPLD [ABCC1_Y1508_S1512L]	0.454	0.822	0.734	0.74	1.03	0.716	0.798	0.485	0.528	0.514	0.485	1.15	0.598	0.743	0.467	1.09
IGCHAYGDQFR [IDH1_Y135_R132C_YF]	0.516	0.825	0.577	0.516	0.933	0.532	0.659	0.611	0.55	0.495	0.51	0.933	0.529	0.82	0.497	1.04
YGAHNHHPLPV [OAT_Y55_Y55H]	0.919	0.963	1.05	0.413	0.62	0.38	0.473	0.506	0.693	0.415	0.458	0.538	0.408	0.671	0.516	0.696
FVPAAYVKKLD [SPTAN1_Y1020]	0.384	0.756	0.605	0.43	0.731	0.472	0.767	0.49	0.348	0.43	0.445	0.791	0.505	0.651	0.356	0.89
TGEKPYECVQC [ZNF24_Y335]	3.11	0.81	1.06	0.514	0.664	0.507	0.531	0.501	1.87	0.515	0.521	0.755	0.501	0.519	0.509	0.7
LLGFLYFFVCS [SLC34A2_Y109]	0.776	1.06	1.22	1.17	2.88	1.76	1.81	2.1	1.43	1.26	0.948	1.66	1.03	2.89	1.04	3.17
ARMTNCGLPRF [TSPAN12_Y138_Y138C_YF]	0.74	1.06	1	0.292	0.492	0.421	0.453	0.323	0.352	0.322	0.358	0.58	0.387	0.591	0.368	0.689
TTKAKYKTPTY [PLD2_Y573]	0.541	0.906	0.848	0.328	0.488	0.313	0.32	0.406	0.336	0.393	0.443	0.473	0.287	0.539	0.362	0.501
KPEKTYGLRKE [CEP43_Y267]	0.823	1.1	0.999	0.433	0.683	0.409	0.614	0.43	0.395	0.46	0.503	0.595	0.344	0.782	0.441	0.766
VHNLDYYKMTT [FGFR3_Y647_K650M]	1.07	0.731	0.643	1.17	5.87	0.895	8.96	0.496	0.522	0.439	0.547	1.33	12.1	0.433	0.492	0.608

Sequence	SH2 binding enrichment (c-Src SH2)	SH2 binding enrichment (Grb2 SH2)	SH2 binding enrichment (SHP2-C SH2)	phosphorylation enrichment (EPHB1)	phosphorylation enrichment (Jak2)	phosphorylation enrichment (EPHB2)	phosphorylation enrichment (FGFR3)	phosphorylation enrichment (c-Src)	phosphorylation enrichment (Fer (mouse))	phosphorylation enrichment (Fyn)	phosphorylation enrichment (Hck)	phosphorylation enrichment (AncSZ)	phosphorylation enrichment (FGFR1)	phosphorylation enrichment (c-Abl (mouse))	phosphorylation enrichment (MERTK)	phosphorylation enrichment (Fes)
HYPDVYAREQL [ALX3_Y181]	0.564	0.802	0.471	0.518	0.892	0.513	0.58	0.709	0.36	0.906	1.14	0.481	0.651	0.511	0.494	0.912
IDDNEYAYLKA [HNF4A_Y286]	0.467	0.863	0.545	0.507	0.849	0.601	0.868	0.677	0.507	0.564	0.707	1.24	1	0.571	0.423	0.991
DASENYFVMDS [TMEM240_Y77_T80M]	0.598	1.01	0.767	6.62	0.952	4.43	7.01	0.569	0.732	0.392	0.457	1.91	8.76	0.677	1.92	1.1
LFLALYTGLVR [PIGB_Y402_H407R]	1.01	1.53	1.02	0.628	1.18	0.573	0.747	1.66	0.539	0.82	1.59	1.31	0.452	0.896	0.759	1.24
SLLTDCSPQLQ [OTC_Y345_Y345C]	0.483	0.975	0.765	0.567	0.905	0.548	0.707	0.475	0.522	0.454	0.554	0.999	0.518	0.768	0.441	1.06
DDPRTYQKFGF [OAS1_Y362_R361T_YF]	0.523	0.78	0.531	0.519	0.773	0.469	0.544	0.693	0.423	0.717	0.526	0.825	0.473	0.607	0.439	0.928
IFCIQYNIRAF [MYH4_Y820]	0.685	1.08	1.07	0.821	1.57	0.678	1.08	0.599	0.596	0.445	0.608	1.57	0.525	1.35	0.436	1.76
NFRTTYVNANE [KCNH2_Y475]	2.03	15.1	1.48	0.404	1.29	0.464	0.719	0.589	0.551	0.444	0.558	0.892	0.498	0.61	0.482	1.27
ADFFDYGRGLS [KHDRBS3_Y304_H306R_YF]	0.625	0.82	0.554	0.426	0.798	0.522	0.702	0.521	0.4	0.518	0.421	0.808	0.414	0.59	0.369	0.746
EIVYVYVKKRS [DNAI2_Y7]	0.483	0.687	0.805	0.555	1.01	0.57	0.675	0.399	0.465	0.354	0.538	1.29	0.52	0.64	0.377	1.1
EIIPFYGMSTF [FNDC3B_Y175_YF]	3.09	0.731	0.575	0.532	0.879	0.667	0.524	0.782	0.897	0.687	0.844	0.955	0.461	0.97	0.901	0.911
GPGGDYAAMGA [ERBB3_Y1276]	1.09	0.771	0.863	1.3	0.604	0.903	0.605	0.494	0.488	0.414	0.527	0.6	0.776	0.572	0.511	0.766
GREFIYVDPMQ [PDGFRA_Y574_H570R_YF]	0.524	1.08	0.596	3.28	0.703	5.79	4.31	1.36	0.589	0.906	1.2	1.03	7.2	3.31	2	0.729
QRKRAYVEIEF [MAK16_Y282_YF]	3.17	1.55	2.48	0.838	0.723	0.594	0.785	0.63	0.48	0.655	0.398	0.926	0.617	0.631	0.643	1.42
KFRREYILSLE [GPC3_Y299_W296R_YF]	0.594	0.86	0.708	0.551	0.61	0.586	0.466	0.5	0.442	0.518	0.474	0.786	0.518	0.601	0.455	0.772
AVLSLYASGCT [ACTA2_Y145_R149C]	0.379	0.861	0.547	0.825	1.2	0.658	0.811	0.46	0.576	0.538	0.634	1.2	0.512	0.965	0.432	1.39
